Assay results: PMC9505737

Columns and labels:
[1] = system: Immunoglobulin E (IgE), human myeloma (human); experiment: NECEEM (CE-LIF); conditions: 25 nM DNA and 25 nM IgE, 10 mM Tris-HCl pH 9.0, no added salt in CE-LIF/NECEEM, temperature not stated
[2] = system: Immunoglobulin E (IgE), human myeloma (human); experiment: cited; conditions: 10 mM Tris-HCl pH 9.0, no added salt in CE-LIF/NECEEM; temperature not stated; cited from earlier work

Sequence: GACTACCCGGGTATCTAATCCGACCATTTTTCGTCTCCTTTGTACGAGCAGTGTGCTCGACCTGCCGCCCGTAGG [S2]
- Kd ([1]; alternative from both peaks, not adopted): 34.6 nM
- Kd ([1]; alternative from sharp peak, not adopted): 28.4 nM
- Kd ([1]; from broad peak (value adopted by authors)): 1.55 nM

Sequence: GACTACCCGGGTATCTAATCCGCGTATGGTCATGGATGTGCATACACCCCGCCTATCAGAACTGCTGCCGCCCGTAGG [S1]
- Kd [1]: 0.83 nM

Sequence: GACTACCCGGGTATCTAATCCTGAAACATAGCATATTTACTTATGTCGCCTTGCCGGTTCTGCTGCCGCCCGTAGG [FITC-IgE-Apt (published IgE aptamer)]
- Kd [2]: 23 nM
